± gives the standard deviation of the averaged measurements.

This passage reports protein stability index results from the supplement of paper PMC10724198.

The test system of this series is Saccharomyces cerevisiae. Briefly: protein stability index of tFT-peptide fusion (C-terminal peptide) (PSI (0-1 scale)); higher = more stable (slower turnover). Conditions: temperature: 30 C. As for the experimental part: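 MPS profiling in S. cerevisiae of the yeast C-terminome library: the last 12 aa of each annotated ORF are fused to the C-terminus of a sfGFP-mCherry timer, after a GGGS linker. Cells are FACS-sorted into 8 mCherry/sfGFP bins and deep-sequenced. PSI runs from 0 (unstable) to 1 (stable); wild type and das1Δ backgrounds, two technical replicates each.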

Where [1] appears, read: genetic background: das1 deletion.

For the sequence TKEAKRRAMKKK [UME6 C-terminal 12 aa], the protein stability index is, setting by setting: under setting [1], 0.706 ± 0.028; (genetic background: wild type) 0.677 ± 0.013.
For the sequence TKKANILDPDYL [FLC1 C-terminal 12 aa], the protein stability index by setting is: under setting [1], 0.685 ± 0.023; (genetic background: wild type) 0.728 ± 0.032.
For TKLGEQRHLCTD [ESL2 C-terminal 12 aa], in that order: 0.698 ± 0.019 and 0.7 ± 0.013.
Regarding TKPNNGLNITNY [MTL1 C-terminal 12 aa], the protein stability index reads like this: under setting [1], 0.689 ± 0.019; (genetic background: wild type) 0.716 ± 0.046.
As for TKSIFPSVNPSA [GPB2 C-terminal 12 aa], the protein stability index is 0.694 ± 0.02 under setting [1] and 0.669 ± 0.019 (genetic background: wild type).
As to “TLDRASNCWRGT [YBL006W-A C-terminal 12 aa]”, the protein stability index came out at 0.709 ± 0.016 under setting [1] and 0.714 ± 0.062 (genetic background: wild type).
For TLHDDRESKSED [CMK2 C-terminal 12 aa], in that order: 0.6829 ± 0.0059 and 0.694 ± 0.036.
Sequence TLIAAGIIRTGR [STI1 C-terminal 12 aa] displayed a protein stability index under setting [1] of 0.727 ± 0.025 and a protein stability index (genetic background: wild type) of 0.702 ± 0.016.
Take TLKSTSSTNSPD [SMP1 C-terminal 12 aa]: the protein stability index is 0.703 ± 0.011 under setting [1] and 0.6844 ± 0.006 (genetic background: wild type).
In the case of TLVFDVELLKVN [FPR1 C-terminal 12 aa], the protein stability index came to 0.6084 ± 0.0029 under setting [1] and 0.251 ± 0.033 (genetic background: wild type).
Regarding TMNCNNADDMLF [YGR190C C-terminal 12 aa], the protein stability index was determined as 0.6995 ± 0.004 under setting [1] and 0.677 ± 0.022 (genetic background: wild type).
Turning to TNVGLKLIAIAK [PPM2 C-terminal 12 aa], the protein stability index is, setting by setting: under setting [1], 0.655 ± 0.034; (genetic background: wild type) 0.649 ± 0.017.
Consider TNVQANSYRKVP [SDP1 C-terminal 12 aa], for which the protein stability index by setting is: under setting [1], 0.6856 ± 0.0029; (genetic background: wild type) 0.522 ± 0.054.
With TPGGGGFGQYKD [OXP1 C-terminal 12 aa], the protein stability index under setting [1] turned out to be 0.7088 ± 0.00061 and the protein stability index (genetic background: wild type) came out at 0.677 ± 0.03.
Take TPLGPKPDIRPL [ECM4 C-terminal 12 aa]: the protein stability index by setting is: under setting [1], 0.727 ± 0.03; (genetic background: wild type) 0.67 ± 0.016.
In the case of TPSKEINFDDDF [RNR4 C-terminal 12 aa], the protein stability index under setting [1] amounted to 0.72 ± 0.011 and the protein stability index (genetic background: wild type) stood at 0.723 ± 0.041.
Take TQLRYTSRGLYR [ECM30 C-terminal 12 aa]: the protein stability index under setting [1] was found to be 0.699 ± 0.018 and the protein stability index (genetic background: wild type) worked out at 0.689 ± 0.023.
TQSGDDYTIRLT [APM1 C-terminal 12 aa] came in with a protein stability index under setting [1] of 0.703 ± 0.015 and a protein stability index (genetic background: wild type) of 0.698 ± 0.014.
On to TRPPCSPIAGYA [YOR345C C-terminal 12 aa], for which the protein stability index is, setting by setting: under setting [1], 0.608 ± 0.017; (genetic background: wild type) 0.628 ± 0.012.
On to “TSCNLNSSVVRS [YOR186C-A C-terminal 12 aa]”, for which the protein stability index came out at 0.708 ± 0.035 under setting [1] and 0.695 ± 0.0014 (genetic background: wild type).
Taken in the same sequence, the figures for TSPKESFFKEVI [LPX2 C-terminal 12 aa] were 0.715 ± 0.03 and 0.711 ± 0.022.
As to TTPTLPTFRTVA [FKS3 C-terminal 12 aa], the protein stability index runs as follows: under setting [1], 0.686 ± 0.018; (genetic background: wild type) 0.6971 ± 0.0014.
With TTTGDKKSEEKQ [TCB2 C-terminal 12 aa], the protein stability index runs as follows: under setting [1], 0.685 ± 0.027; (genetic background: wild type) 0.69 ± 0.032.
For the sequence TYFSFHILFHNL [YOR309C C-terminal 12 aa], the protein stability index turned out to be 0.614 ± 0.0097 under setting [1] and 0.221 ± 0.013 (genetic background: wild type).
TYQLIEKNRNSK [BLS1 C-terminal 12 aa]: the protein stability index was found to be 0.692 ± 0.019 under setting [1] and 0.678 ± 0.01 (genetic background: wild type).
Take VAAGVFIEHDEL [YOS9 C-terminal 12 aa]: the protein stability index is, setting by setting: under setting [1], 0.723 ± 0.0098; (genetic background: wild type) 0.702 ± 0.013.
In turn, VASSTEQLLQEM [DYN1 C-terminal 12 aa] displayed a protein stability index under setting [1] of 0.67372 ± 0.00052 and a protein stability index (genetic background: wild type) of 0.693 ± 0.029.
Taken in the same sequence, the figures for VATADIKNEDKN [BNA2 C-terminal 12 aa] were 0.671 ± 0.021 and 0.731 ± 0.066.
As to VDAKIKKQMNRH [YJR124C C-terminal 12 aa], the protein stability index stood at 0.694 ± 0.011 under setting [1] and 0.682 ± 0.0093 (genetic background: wild type).
Regarding VDYKTEPLQPLI [RGI2 C-terminal 12 aa], the protein stability index is, setting by setting: under setting [1], 0.7 ± 0.022; (genetic background: wild type) 0.678 ± 0.0079.
For VEGKNAAASGSA [LEU4 C-terminal 12 aa], the protein stability index by setting is: under setting [1], 0.7086 ± 0.0054; (genetic background: wild type) 0.682 ± 0.013.
For VEKDLVSVGSTW [NAR1 C-terminal 12 aa], in that order: 0.676 ± 0.0024 and 0.7073 ± 0.0067.
Regarding VEKVKKFVEENN [YML108W C-terminal 12 aa], the protein stability index is 0.678 ± 0.007 under setting [1] and 0.651 ± 0.069 (genetic background: wild type).
As to VELYENQSHMQN [CDC9 C-terminal 12 aa], the protein stability index runs as follows: under setting [1], 0.701 ± 0.01; (genetic background: wild type) 0.678 ± 0.074.
Taken in the same sequence, the figures for VEVLENLQSVLK [ATP16 C-terminal 12 aa] were 0.68 ± 0.013 and 0.7134 ± 0.0029.
In the case of VGGIDYIKEFLS [CDA2 C-terminal 12 aa], the protein stability index is, setting by setting: under setting [1], 0.7012 ± 0.0019; (genetic background: wild type) 0.264 ± 0.0041.
For VGLLTAIIMSIM [PST1 C-terminal 12 aa], the protein stability index amounted to 0.576 ± 0.011 under setting [1] and 0.529 ± 0.021 (genetic background: wild type).
On to VGVERLLNDRFR [ARP4 C-terminal 12 aa], for which the protein stability index came to 0.6944 ± 0.0026 under setting [1] and 0.695 ± 0.028 (genetic background: wild type).
As for VKKSNWSNYFKS [PCL2 C-terminal 12 aa], the protein stability index came to 0.6868 ± 0.0023 under setting [1] and 0.682 ± 0.033 (genetic background: wild type).
As for “VKKYSMKKKKKR [YDR320W-B C-terminal 12 aa]”, the protein stability index is 0.671 ± 0.014 under setting [1] and 0.62 ± 0.0065 (genetic background: wild type).
For VKNWSKSILGFN [MSC1 C-terminal 12 aa], the protein stability index by setting is: under setting [1], 0.7095 ± 0.004; (genetic background: wild type) 0.666 ± 0.021.
For VLGDCQHVTSLL [HST4 C-terminal 12 aa], the protein stability index was 0.697 ± 0.015 under setting [1] and 0.7204 ± 0.0067 (genetic background: wild type).
Taken in the same sequence, the figures for VLREEVKKEEEN [KRS1 C-terminal 12 aa] were 0.6913 ± 0.006 and 0.7 ± 0.025.
With VLVFSWRHIFCF [YJL120W C-terminal 12 aa], the protein stability index under setting [1] is 0.467 ± 0.026 and the protein stability index (genetic background: wild type) was found to be 0.179 ± 0.0033.
Consider VNLDVTEDDKQK [STE20 C-terminal 12 aa], for which the protein stability index under setting [1] was determined as 0.6857 ± 0.0021 and the protein stability index (genetic background: wild type) came out at 0.67 ± 0.04.
Taken in the same sequence, the figures for VNPKAKRPSNEK [NOP2 C-terminal 12 aa] were 0.712 ± 0.044 and 0.754 ± 0.042.
For VNRQLEMDLPIE [YKL066W C-terminal 12 aa], in that order: 0.7074 ± 0.0056 and 0.712 ± 0.042.
For VPLGPKPDISRL [GTO1 C-terminal 12 aa], in that order: 0.7047 ± 0.0045 and 0.712 ± 0.041.
On to VPNDNNEQRSSQ [SAN1 C-terminal 12 aa], for which the protein stability index is 0.7041 ± 0.0064 under setting [1] and 0.662 ± 0.011 (genetic background: wild type).
For the sequence VPRFKDIFDDLS [DOA1 C-terminal 12 aa], the protein stability index is 0.7313 ± 0.0058 under setting [1] and 0.719 ± 0.0078 (genetic background: wild type).
“VQCVCFNVEMRL [YIL046W-A C-terminal 12 aa]”: the protein stability index under setting [1] stood at 0.662 ± 0.015 and the protein stability index (genetic background: wild type) was found to be 0.676 ± 0.091.
For VQHDPSVHTNQL [MAE1 C-terminal 12 aa], in that order: 0.6923 ± 0.0028 and 0.664 ± 0.029.
On to VQNWKPKPFGVL [LAS1 C-terminal 12 aa], for which the protein stability index is, setting by setting: under setting [1], 0.707 ± 0.015; (genetic background: wild type) 0.737 ± 0.059.
In the case of VRDHFGVINSIW [YJL070C C-terminal 12 aa], the protein stability index is, setting by setting: under setting [1], 0.715 ± 0.051; (genetic background: wild type) 0.694 ± 0.011.
For VRKDYIALINQY [ADI1 C-terminal 12 aa], the protein stability index stood at 0.6715 ± 0.0042 under setting [1] and 0.652 ± 0.01 (genetic background: wild type).
Taken in the same sequence, the figures for VRQVEEDENYDD [CYC8 C-terminal 12 aa] were 0.7 ± 0.024 and 0.748 ± 0.076.
Consider VRYVIIHRHTST [RMD8 C-terminal 12 aa], for which the protein stability index was determined as 0.648 ± 0.0073 under setting [1] and 0.599 ± 0.0066 (genetic background: wild type).
With VSDSEQSDTKGI [UAF30 C-terminal 12 aa], the protein stability index amounted to 0.6733 ± 0.0011 under setting [1] and 0.676 ± 0.016 (genetic background: wild type).
Turning to VSLKKGKLKAHC [YAP7 C-terminal 12 aa], the protein stability index stood at 0.673 ± 0.016 under setting [1] and 0.692 ± 0.019 (genetic background: wild type).
With VTAGKAKFVLYN [SUN4 C-terminal 12 aa], the protein stability index is 0.665 ± 0.0087 under setting [1] and 0.445 ± 0.012 (genetic background: wild type).
Take VTVLRNSQYFFS [RPO41 C-terminal 12 aa]: the protein stability index came to 0.741 ± 0.039 under setting [1] and 0.728 ± 0.018 (genetic background: wild type).
Taken in the same sequence, the figures for VVQFLVNLVCHT [YGR114C C-terminal 12 aa] were 0.4879 ± 0.0042 and 0.487 ± 0.011.
As to VWCSVKKRLLEK [TIM23 C-terminal 12 aa], the protein stability index runs as follows: under setting [1], 0.724 ± 0.016; (genetic background: wild type) 0.732 ± 0.037.
Turning to WAKRAFDGQFVK [DAP2 C-terminal 12 aa], the protein stability index by setting is: under setting [1], 0.717 ± 0.0086; (genetic background: wild type) 0.735 ± 0.017.
Take WEAYLRRCGQQN [URA3 C-terminal 12 aa]: the protein stability index is 0.697 ± 0.032 under setting [1] and 0.658 ± 0.018 (genetic background: wild type).
Consider WGIYEELVKRFM [HEM25 C-terminal 12 aa], for which the protein stability index reads like this: under setting [1], 0.7094 ± 0.0066; (genetic background: wild type) 0.707 ± 0.013.
For WKEDADKNAGHK [OCH1 C-terminal 12 aa], in that order: 0.706 ± 0.012 and 0.731 ± 0.0062.
